Assay results published in patent US20180282401A1 (AXON NEUROSCIENCE, published 2018).

B1: monoclonal antibody DC8E8 (antibody, V domains shown)
VH: QVQLQQSGPELVKPGTSVKMPCKASGYIFTDYVISWVKQRTGQGLEWIGEIFPRSGSTYYNEKFKGKATLTADKSSNTAYMQLSSVTSEDSAVYFCARDYYGTSFAMDYWGQGTSVTVSS
VL: DIVMSQSPSSLAVSAGEKVTMSCKSSQSLLNSRTRKNYLAWYQQKPGQSPKLLIYWASTRESGVPDRFTGSGSGTDFTLTISSVQAEDLAVYYCKQSFYLRTFGGGTKLDIK
notes: also called mAb DC8E8; antibody of hybridoma ATCC PTA-11994

Assays:
256-285/3R = target: T1, 256-285/3R (not fully specified); experiment: ELISA, synthetic peptide coated (5 µg/ml), DC8E8 hybridoma culture supernate, anti-mouse Ig-HRP, absorbance 492 nm
T1 peptide: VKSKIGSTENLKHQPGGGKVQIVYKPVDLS
Protocol: (§1) Microtiter plates were coated overnight at 37° C. with either recombinant tau proteins or with tau peptides (5 μg/ml in PBS, 50 μl/well). […] Bound monoclonal antibody was detected with sheep anti-mouse Ig HRP-conjugated (DAKO). The reaction was developed with orthophenylenediamine solution as a peroxidase substrate and stopped with 50 μl of 2 M H₂SO₄. Absorbance was measured at 492 nm using a Multiscan MCC/340 ELISA reader (Labsystems). Readouts with an absorbance value of at least twice the value of the negative controls (PBS) were considered positive.

264-293/3R = target: T2, 264-293/3R; experiment: as above
T2 peptide: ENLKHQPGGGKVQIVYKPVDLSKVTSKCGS
Protocol: as §1

264-293/4R = target: T3, 264-293/4R; experiment: as above
T3 peptide: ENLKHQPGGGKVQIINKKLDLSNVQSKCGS
Protocol: as §1

281-305/4R = target: T4, 281-305/4R; experiment: as above
T4 peptide: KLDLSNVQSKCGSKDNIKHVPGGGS
Protocol: as §1

282-311/4R = target: T5, 282-311/4R; experiment: as above
T5 peptide: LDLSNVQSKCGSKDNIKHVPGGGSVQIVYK
Protocol: as §1

291-320/4R = target: T6, 291-320/4R; experiment: as above
T6 peptide: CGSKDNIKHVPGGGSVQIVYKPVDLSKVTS
Protocol: as §1

314-342/R4 = target: T7, 314-342/R4; experiment: as above
T7 peptide: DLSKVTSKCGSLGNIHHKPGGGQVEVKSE
Protocol: as §1

256-285/4R = target: T8, 256-285/4R; experiment: as above
T8 peptide: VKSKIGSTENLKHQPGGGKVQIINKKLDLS
Protocol: as §1

259-288/3R = target: T9, 259-288/3R (not fully specified); experiment: as above
T9 peptide: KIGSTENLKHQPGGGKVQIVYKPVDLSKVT
Protocol: as §1

259-288/4R = target: T10, 259-288/4R; experiment: as above
T10 peptide: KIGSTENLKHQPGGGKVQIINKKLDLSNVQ
Protocol: as §1

275-304/4R = experiment: as above
Protocol: as §1

human tau isoform 2N4R [1] = target: T11, human tau isoform 2N4R (human, UniProt P10636 1-758); experiment: SPR (BIACORE3000, CM5), DC8E8 captured by anti-mouse antibody, tau protein injected, 25 °C, PBS-P, two-phase reaction model
T11 construct: also called tau 2N4R; tau441
T11 sequence (P10636 other isoform, or with tags, fused parts or gaps limits assumed): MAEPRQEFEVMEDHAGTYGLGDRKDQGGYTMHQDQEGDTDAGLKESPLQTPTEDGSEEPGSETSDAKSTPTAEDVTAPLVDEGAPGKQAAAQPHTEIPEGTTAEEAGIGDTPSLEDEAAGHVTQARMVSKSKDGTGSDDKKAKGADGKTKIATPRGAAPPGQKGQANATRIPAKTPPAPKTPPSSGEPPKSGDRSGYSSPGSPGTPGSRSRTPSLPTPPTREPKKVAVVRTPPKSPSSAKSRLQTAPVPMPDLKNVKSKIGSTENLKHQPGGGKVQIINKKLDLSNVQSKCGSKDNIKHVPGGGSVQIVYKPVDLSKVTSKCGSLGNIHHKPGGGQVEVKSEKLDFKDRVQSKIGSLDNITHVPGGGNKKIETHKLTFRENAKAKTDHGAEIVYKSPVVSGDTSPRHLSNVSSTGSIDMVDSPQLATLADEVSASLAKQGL
Protocol: (§2) A BIACORE3000 instrument with a CM5 sensor chip (Biacore AB, Uppsala) was used for the SPR assays. […] These experiments were done at 25° C. in PBS pH 7.4 with 0.005% of P20 (PBS-P) as the running buffer.
(§3) Kinetic rate constants were approximated globally, maximal responses were fitted locally, and the bulk response was set to zero.

tauΔ(1-150;392-441)/4R [2] = target: T12, tauΔ(1-150;392-441)/4R (human, UniProt P10636 468-708); experiment: as above
T12 construct: Recombinant truncated human tau, numbered on 2N4R; also the transgene of SHR72 rats; also called misdisordered tau; pathological tau
T12 sequence (P10636 other isoform, or with tags, fused parts or gaps mutant limits assumed): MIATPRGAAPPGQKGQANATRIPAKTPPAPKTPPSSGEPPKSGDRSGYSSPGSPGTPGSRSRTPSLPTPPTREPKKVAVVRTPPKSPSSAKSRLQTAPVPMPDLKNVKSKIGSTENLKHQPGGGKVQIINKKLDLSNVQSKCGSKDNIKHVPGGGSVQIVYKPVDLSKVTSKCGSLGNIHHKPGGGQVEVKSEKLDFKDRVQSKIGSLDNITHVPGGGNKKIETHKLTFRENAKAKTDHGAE
Protocol: as §2, §3

human tau isoform 2N3R [3] = target: T13, human tau isoform 2N3R (human, UniProt P10636 2-758); experiment: as above
T13 construct: also called tau 2N3R; tau39
T13 sequence (P10636 other isoform, or with tags, fused parts or gaps limits assumed): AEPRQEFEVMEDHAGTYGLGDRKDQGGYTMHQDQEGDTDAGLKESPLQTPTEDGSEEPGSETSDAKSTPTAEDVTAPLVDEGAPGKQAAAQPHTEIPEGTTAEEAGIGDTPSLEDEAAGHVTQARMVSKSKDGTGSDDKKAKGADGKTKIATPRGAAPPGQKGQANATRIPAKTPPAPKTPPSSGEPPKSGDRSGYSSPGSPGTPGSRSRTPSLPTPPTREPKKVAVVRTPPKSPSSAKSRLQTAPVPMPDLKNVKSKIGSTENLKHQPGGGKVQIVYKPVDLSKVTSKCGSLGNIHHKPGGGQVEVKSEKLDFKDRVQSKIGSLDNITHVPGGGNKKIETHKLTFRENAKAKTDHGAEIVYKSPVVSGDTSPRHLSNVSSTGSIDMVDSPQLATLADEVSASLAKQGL
Protocol: as §2, §3

tauΔ(1-150;392-441)/3R [4] = target: T14, tauΔ(1-150;392-441)/3R (human, UniProt P10636 468-708); experiment: as above
T14 construct: Also the transgene of SHR24 rats; also called misdisordered three repeat tau; tau type IIB (151-391/R3)
T14 sequence (P10636 other isoform, or with tags, fused parts or gaps mutant): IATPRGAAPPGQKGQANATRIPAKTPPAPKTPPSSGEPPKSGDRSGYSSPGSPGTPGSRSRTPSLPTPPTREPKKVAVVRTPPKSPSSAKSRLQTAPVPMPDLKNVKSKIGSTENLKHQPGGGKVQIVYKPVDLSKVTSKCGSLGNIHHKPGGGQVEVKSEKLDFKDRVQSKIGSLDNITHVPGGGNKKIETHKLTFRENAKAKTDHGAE
Protocol: as §2, §3

human tau isoform 2N4R [5] = target: T11, human tau isoform 2N4R; experiment: as above; remark: listed apart in the source
Protocol: as §2, §3

tauΔ(1-150;392-441)/4R [6] = target: T12, tauΔ(1-150;392-441)/4R; experiment: as above; remark: listed apart in the source
Protocol: as §2, §3

human tau isoform 2N3R [7] = target: T13, human tau isoform 2N3R; experiment: as above; remark: listed apart in the source
Protocol: as §2, §3

tauΔ(1-150;392-441)/3R [8] = target: T14, tauΔ(1-150;392-441)/3R; experiment: as above; remark: listed apart in the source
Protocol: as §2, §3

human tau isoform 2N4R [9] = target: T11, human tau isoform 2N4R; experiment: SPR (Biacore 3000, CM5), His-tagged scDC8E8v captured by anti-His antibody (60 RU), tau protein injected at 100 µl/min, 25 °C, 1:1 model
tauΔ(1-150;392-441)/4R [10] = target: T12, tauΔ(1-150;392-441)/4R; experiment: as above
[11] = target: B1; experiment: competition ELISA: peptide pre-incubated with DC8E8, binding to plate-coated tauΔ(1-150;392-441)4R measured
Protocol: The coated ELISA plates were washed 4 times with PBS/Tween 20 (phosphate-buffered saline supplemented with 0.05% v/v Tween 20), and blocked with PBS/Tween 20 for 2 h at 25° C. Each of the peptides was separately dissolved in PBS at the final concentration of 5 mM. […] The antibody/peptide mixtures were incubated for 1 hr at 25° C. on a rotating platform set to 250 rpm. One hundred microliters of the antibody/peptide mixtures were then transferred into the prepared ELISA plates and incubated for 1 hr at 25° C. on a rotating platform set to 250 rpm. The ELISA plates were washed 4× times with PBS/Tween 20. The ELISA plates were then incubated with 100 μl of Polyclonal Goat Anti-Mouse Immunoglobulins/HRP (Dako, #P0447) diluted 1:4 000 in PBS/Tween 20 and incubated for 1 hr at 25° C. on a rotating platform set to 250 rpm. The ELISA plates were washed 4× times with PBS/Tween20. […] The developed signal was measured by reading at 490 nm (e.g. using the Victor Multilabel Counter (Wallac).

[12] = target: B1; experiment: competition ELISA: peptide pre-incubated with DC8E8 (1 µg/ml), then on plates coated with the competitor tauΔ(1-150;392-441)/4R; peptide series 1.25-160 µM in paragraph 380, the concentration of the bars is not given

B1
binding result (256-285/3R): binds | binding result (264-293/3R): binds | binding result (264-293/4R): binds | binding result (281-305/4R): binds | binding result (282-311/4R): binds | binding result (291-320/4R): binds | binding result (314-342/R4): binds | binding result (256-285/4R): binds | binding result (259-288/3R): binds | binding result (259-288/4R): binds | binding result (275-304/4R): binds | Ka (human tau isoform 2N4R [1]): 1.1e+07 M⁻¹ | Ka (tauΔ(1-150;392-441)/4R [2]): 7.3e+07 M⁻¹ | Ka (human tau isoform 2N3R [3]): 290000 M⁻¹ | Ka (tauΔ(1-150;392-441)/3R [4]): 1.1e+06 M⁻¹ | koff (human tau isoform 2N4R [5]): 0.04 s⁻¹ | kon (human tau isoform 2N4R [5]): 460000 M⁻¹ s⁻¹ | koff (tauΔ(1-150;392-441)/4R [6]): 0.04 s⁻¹ | kon (tauΔ(1-150;392-441)/4R [6]): 2.6e+06 M⁻¹ s⁻¹ | koff (human tau isoform 2N3R [7]): 0.5 s⁻¹ | kon (human tau isoform 2N3R [7]): 140000 M⁻¹ s⁻¹ | koff (tauΔ(1-150;392-441)/3R [8]): 0.5 s⁻¹ | kon (tauΔ(1-150;392-441)/3R [8]): 490000 M⁻¹ s⁻¹

B2: recombinant scFv fragment of monoclonal antibody DC8E8 (scDC8E8v) (scFv, V domains shown)
VH: QVQLQQSGPELVKPGTSVKMPCKASGYIFTDYVISWVKQRTGQGLEWIGEIFPRSGSTYYNEKFKGKATLTADKSSNTAYMQLSSVTSEDSAVYFCARDYYGTSFAMDYWGQGTSVTVSS
VL: DIVMSQSPSSLAVSAGEKVTMSCKSSQSLLNSRTRKNYLAWYQQKPGQSPKLLIYWASTRESGVPDRFTGSGSGTDFTLTISSVQAEDLAVYYCKQSFYLRTFGGGTKLDIK
Ka (human tau isoform 2N4R [9]): 270000 M⁻¹ | koff (human tau isoform 2N4R [9]): 0.2 s⁻¹ | kon (human tau isoform 2N4R [9]): 57000 M⁻¹ s⁻¹ | Ka (tauΔ(1-150;392-441)/4R [10]): 8.1e+06 M⁻¹ | koff (tauΔ(1-150;392-441)/4R [10]): 0.02 s⁻¹ | kon (tauΔ(1-150;392-441)/4R [10]): 180000 M⁻¹ s⁻¹

GWSIHSPGGGSC (Designed peptide keeping HxPGGG) [designer therapeutic epitope 1 GWSIHSPGGGSC (SEQ ID NO: 250)]
IC50 (read off the curve) [11]: 2000 to 3000 nM

SVFQHLPGGGSC (Designed peptide keeping HxPGGG) [designer therapeutic epitope 2 SVFQHLPGGGSC (SEQ ID NO: 251)]
IC50 (read off the curve) [11]: ~30 nM

DNIKHVPGGGS (check the listing) [tau peptide 295-DNIKHVPGGGS-305 (SEQ ID NO: 171)]
binding result [12]: binds
